Results on three molecules are retold here after patent US20220298231A1.

Conditions in all cases: remark: other sources report otherwise
For assay [1], the target named is human full-length alpha-synuclein (human), P37840. The assay is described as follows: SPR, mAb captured, steady-state fit. Background: SPR reads the build-up and loss of mass on a sensor chip optically.
The target of assay [2] is alpha-synuclein fibrils (Homo sapiens (Human)), P37840. The assay is described as follows: SPR, 450 nM aggregates, relative to chimeric.
Assay [3] deals with human full-length alpha-synuclein (human), P37840. The assay is described as follows: SPR, 100 nM monomer, relative to chimeric.
Assay [4] shares this target. The assay is described as follows: SPR, mAb captured; alpha-synuclein monomers.
Assay [5] has as its target alpha-synuclein fibrils (Homo sapiens (Human)), P37840. Put plainly: SPR, mAb captured; alpha-synuclein fibrils.

B1: cACI-7067-1101C8-Ab2 (antibody, V domains shown)
VH: EVQLVESGGGLVQPKGSLKLSCAASGFSFNIYAMNWVRQAPGKGLEWVARIRSKSNNYATYYADSVKDRFTISRADSESMLYLQMNNLKTEDTAMYYCVRVGLRFYAMDYWGQGTSVTVSS
VL: DVLMTQTPLSLPVSLGDQASISCRSSQSIVHSNGNTYLEWYLQKPGQSPKLLIYKVSNRFSGVPDRFSGSGSGTDFTLKISRVEAEDLGVYYCFQGSQGPLTFGAGTKLELK
As a reminder, the Kd is the equilibrium constant for the complex coming apart. Lower therefore signals a tighter complex. As to B1, the Kd in assay [1] was found to be 54.5 nM. Moreover, the Relative koff in assay [2] and in assay [3] was 1 in each case.

B2: ACI-7067-1113D10-Ab1 (antibody, V domains shown)
VH: EVQLVESGGGLVQPKGSLKLSCAASGFTFNTYALHWVRQAPGKGLEWVARIRSKSSNYATYYADSVKDRFTISRDDSQSMLYLQMNNLKTEDTGMYYCVRGGVSPFDYWGQGTTLTVSS
VL: QIVLTQSPAIMSASPGEKVTMTCSASSSVSYMHWYQQKSGTSPKRWIYDTSKLASGVPARFSGSGSGTSYSLTISSMEAEDSATYYCQQWSNNPPTFGGGTKLEIK
A word on the koff: it is the first-order rate constant of dissociation. Read a high koff as a short-lived complex. With B2, the koff in assay [4] amounted to 0.0226 s⁻¹.

B3: ACI-7079-2503C6-Ab1 (antibody, V domains shown)
VH: DVQLQESGPGLVKPSQSLSLTCSVTGYSITSGYYWNWIRLFPGNKLEWLGYINYDGSNNFNPSLKNRISITRDTSKNQFFLKLNSVTSEDTATYFCLRGDWDWGQGTLVTVSA
VL: not shown
For orientation: kon means the rate constant with which the complex forms. In assay [5], B3 registered a koff of less than 1e-05 s⁻¹ and a kon of 9450 M⁻¹ s⁻¹.
